In paper PMC5282582:
Residue numbers refer to the chain shown, from its start. Names may count otherwise. Blank lines part the entries; values can stand above or below the binder they belong to.

Assays:
[1] = molecular target: the molecule itself; assay: SEC-MALS; 100 μl of purified protein injected at 2 mg/ml (low concentration); Superdex 200 10/300 GL, room temperature, 10 mM HEPES pH 7.4, 200 mM NaCl, 5 mM β-ME, 0.4 ml/min
[2] = molecular target: T1, γ subunit of human NAD-dependent isocitrate dehydrogenase (human, UniProt P51553 40-393); assay: SDS-PAGE of the co-purified complex; subunits co-expressed in E. coli, purified as a complex by the His6 tag of β or γ (Ni-NTA, TEV cleavage, second Ni-NTA, gel filtration); 12% SDS-PAGE with Coomassie blue staining, intensity of the two bands; details: both partners purified
T1 construct: γ subunit of human NAD-IDH (IDH3G); the N-terminal 39 residues (mitochondrial signal peptide) were removed during construction; a TEV protease site stood between the subunit and the His6 tag; residues of the site may remain after cleavage; also called IDH3G; regulatory subunit; not shown: His6, C-terminal, cleaved
T1 sequence (looked up): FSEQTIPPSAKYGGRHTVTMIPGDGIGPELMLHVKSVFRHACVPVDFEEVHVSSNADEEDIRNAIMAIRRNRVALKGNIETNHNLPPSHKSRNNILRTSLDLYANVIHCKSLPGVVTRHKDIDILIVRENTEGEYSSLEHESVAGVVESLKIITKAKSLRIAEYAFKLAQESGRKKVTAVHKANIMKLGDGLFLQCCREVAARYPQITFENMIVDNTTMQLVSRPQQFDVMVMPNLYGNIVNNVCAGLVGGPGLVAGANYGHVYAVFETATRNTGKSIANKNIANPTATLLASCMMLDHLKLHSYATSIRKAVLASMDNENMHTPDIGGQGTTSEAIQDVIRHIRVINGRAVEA

[3] = molecular target: β subunit of human NAD-dependent isocitrate dehydrogenase (human); assay: as above; details: both partners purified
Sequence of β subunit of human NAD-dependent isocitrate dehydrogenase (human) (chain, as listed by the source): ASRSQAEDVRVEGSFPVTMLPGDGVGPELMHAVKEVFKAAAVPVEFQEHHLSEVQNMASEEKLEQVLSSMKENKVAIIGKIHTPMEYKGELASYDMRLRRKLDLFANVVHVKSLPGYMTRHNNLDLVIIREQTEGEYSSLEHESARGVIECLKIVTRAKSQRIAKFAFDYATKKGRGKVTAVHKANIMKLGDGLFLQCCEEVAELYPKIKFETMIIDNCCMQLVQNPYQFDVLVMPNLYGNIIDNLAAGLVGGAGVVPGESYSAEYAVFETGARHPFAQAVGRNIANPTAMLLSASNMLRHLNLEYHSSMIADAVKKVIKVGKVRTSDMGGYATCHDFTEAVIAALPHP

B1: mutant α_(Y126F)βαγ heterotetramer of human NAD-dependent isocitrate dehydrogenase (complex)
chain 1: TGGVQTVTLIPGDGIGPEISAAVMKIFDAAKAPIQWEERNVTAIQGPGGKWMIPSEAKESMDKNKMGLKGPLKTPIAAGHPSMNLLLRKTFDLYANVRPCVSIEGYKTPYTDVNIVTIRENTEGEFSGIEHVIVDGVVQSIKLITEGASKRIAEFAFEYARNNHRSNVTAVHKANIMRMSDGLFLQKCREVAESCKDIKFNEMYLDTVCLNMVQDPSQFDVLVMPNLYGDILSDLCAGLIGGLGVTPSGNIGANGVAIFESVHGTAPDIAGKDMANPTALLLSAVMMLRHMGLFDHAARIEAACFATIKDGKSLTKDLGGNAKCSDFTEEICRRVKDLD
chain 2: not shown
chain 3: B1 chain 1 with F126Y
chain 4: T1 sequence (looked up)
- stoichiometry N [1]: 2

B2: mutant αβα_(Y126F)γ heterotetramer of human NAD-dependent isocitrate dehydrogenase (complex)
chain 1: B1 chain 1 with F126Y
chain 2: not shown
chain 3: B1 chain 1
chain 4: T1 sequence (looked up)
- stoichiometry N [1]: 2

- stoichiometry N [2]: 1
- stoichiometry N [3]: 1
B3: α subunit of human NAD-dependent isocitrate dehydrogenase (natural protein, UniProt P50213 28-366, looked up)
chain: B1 chain 1 with F126Y
notes: α subunit of human NAD-IDH (IDH3A); the N-terminal 27 residues (mitochondrial signal peptide) were removed during construction; cloned in the co-expression vector pQlinkN; gene bought from FulenGen in pReceiver-B01/B02; also called IDH3A; catalytic subunit
